Results taken from patent EP3875478A1.

Key:
human IgG1 (human) = experiment: Biacore (SPR), format not described
[1] = molecular target: CD64wt-Bbz CAR (native CD64 - TMCD8 - 4-1BB - CD3z) on primary T lymphocytes (human); experiment: cell-based or functional assay
[2] = molecular target: CD64K130S CAR (4-1BB-CD3z) on primary T lymphocytes (human); experiment: cell-based or functional assay
[3] = molecular target: CD64+V172-28z CAR (CD64 with insertion of Valine at 172 - TMCD8 - CD28 - truncated CD3z) on primary T lymphocytes (human); experiment: cell-based or functional assay
[4] = molecular target: CD64K130Y CAR (CD64 K130Y - TMCD8 - 4-1BB - full CD3z) on primary T lymphocytes (human); experiment: cell-based or functional assay
[5] = molecular target: CD64R175A CAR (CD64 R175A - TMCD8 - CD28 - CD3z) on primary T lymphocytes (human); experiment: cell-based or functional assay

## CD64 with K130H mutation, as measured by Biacore (receptor)
Human IgG1 (human)
  Kd: 53 nM
  fold lower affinity for IgG1 than native CD64: 5 fold

## CD64 with K130S, as measured by Biacore (receptor)
Human IgG1 (human)
  Kd: 74 nM
  fold reduction of the affinity of CD64 for IgG1: 7 fold

## anti-CD20 antibody (Rituximab clone), IgG1
[1]
  % inhibition 20%HS vs 10%FBS (24h): 90.3%
  % inhibition 20%HS vs 10%FBS (3 days): 91.7%
  % inhibition 20%HS vs 10%FBS (7 days): 69.5%
  % inhibition (72h, 20% human serum vs 10% FBS): 92.8%
  gamma IFN secretion in proliferation assay, 10% FBS, mean (3 days): 203000
  gamma IFN secretion in proliferation assay, 10% FBS, mean (7 days): 107000
  gamma IFN secretion in proliferation assay, 20% human serum, mean (3 days): 16900
  gamma IFN secretion in proliferation assay, 20% human serum, mean (7 days): 32600
  gamma interferon secretion, 24h co-culture with Raji, 10% FBS, mean: 12000
  gamma interferon secretion, 24h co-culture with Raji, 20% human serum, mean: 1170
  gamma interferon secretion, 72h co-culture with Raji, 10% FBS, mean: 123000
  gamma interferon secretion, 72h co-culture with Raji, 20% human serum, mean: 8810
  inhibition of proliferation by human serum: 6 fold
[2]
  cytokine secretion, 24h co-culture with Raji, antibody 2 ug/mL, 2,5% Human Serum, mean: 5350
  cytokine secretion, 24h co-culture with Raji, antibody 2 ug/mL, 10% FBS, mean: 5410
  cytokine secretion, 24h co-culture with Raji, antibody 2 ug/mL, 20% Human Serum, mean: 2730
  percent inhibition 20%HS vs 10%FBS: 49.5%
[3]
  % inhibition 20%HS vs 10%FBS (24h): 20.4%
  % inhibition 20%HS vs 10%FBS (3 days): 40.2%
  % inhibition 20%HS vs 10%FBS (7 days): 51.7%
  % inhibition (72h, 20% human serum vs 10% FBS): 31.5%
  gamma IFN secretion in proliferation assay, 10% FBS, mean (3 days): 438000
  gamma IFN secretion in proliferation assay, 10% FBS, mean (7 days): 753000
  gamma IFN secretion in proliferation assay, 20% human serum, mean (3 days): 262000
  gamma IFN secretion in proliferation assay, 20% human serum, mean (7 days): 364000
  gamma interferon secretion, 24h co-culture with Raji, 10% FBS, mean: 11500
  gamma interferon secretion, 24h co-culture with Raji, 20% human serum, mean: 9130
  gamma interferon secretion, 72h co-culture with Raji, 10% FBS, mean: 399000
  gamma interferon secretion, 72h co-culture with Raji, 20% human serum, mean: 273000
  inhibition of proliferation by human serum: 38%

## anti-CD20 antibody IgG1 mutated at Leucine 235 to Alanine
[4]
  cytokine secretion, 24h co-culture with Raji, antibody 2 ug/mL, 2,5% Human Serum, mean: 2720
  cytokine secretion, 24h co-culture with Raji, antibody 2 ug/mL, 10% FBS, mean: 6270
  cytokine secretion, 24h co-culture with Raji, antibody 2 ug/mL, 20% Human Serum, mean: 292
  percent inhibition 20%HS vs 10%FBS: 95.3%

## anti-CD22 antibody (m971 clone), IgG1
[4]
  cytokine secretion, 24h co-culture with Raji, antibody 2 ug/mL, 10% FBS, mean: 20900
  cytokine secretion, 24h co-culture with Raji, antibody 2 ug/mL, 20% Human Serum, mean: 9580
  percent inhibition 20%HS vs 10%FBS: 54.2%
[5]
  cytokine secretion, 24h co-culture with Raji, antibody 2 ug/mL, 10% FBS, mean: 55900
  cytokine secretion, 24h co-culture with Raji, antibody 2 ug/mL, 20% Human Serum, mean: 27000
  percent inhibition 20%HS vs 10%FBS: 51.6%

## native CD64 (human high affinity Fc gamma receptor alpha chain), as measured by Biacore
Human IgG1 (human)
  Kd: 10 nM
